US9091696B2, “Modulation of NR2F6 and methods and uses thereof” (Regen Biopharma, Inc., priority 2008, dated 2015)

Key:
[1] = tested on: U937 GFP cells; assay: Cell cycle analysis by propidium iodide DNA content after atRA; format: cell-based, human; settings: control U937 GFP cells; FIG. 3B
Experimental: Differentiation was induced in the U937 cell line by treatment with 10 nM TPA (Sigma), 1 uM ATRA (Sigma), or 1.25% v/v DMSO (Sigma) respectively. Immunostaining for the maturation marker CD11b (eBioscience) was performed for twenty minutes in the dark according to manufacturer's instructions and cells were analysed by flow cytometry. Nitroblue tetrazolium (NBT) reduction test (Sigma) was performed according to the manufacturer's instructions, with a minimum of 300 cells scored per slide in three different fields of view. Each experimental timepoint was conducted in triplicate.
Overexpression of NR2F6 is able to override the growth arrest associated with differentiation and maturation, in particular maturation and differentiation induced by all-trans retinoic acid (FIG. 3). […] Growth of U937 cells expressing either GFP of NR2F6-IRES-GFP was monitored by counting using trypan blue following treatment of cells with atRA (FIG. 3A). U937 cells expressing either GFP of NR2F6-IRES-GFP were treated with atRA. DNA content was assessed using propidium iodide in order to determine which phase of the cell cycle the cells in each respective population resided in (FIG. 3B).

[2] = tested on: 32Dcl3-NR2F6 cells; assay: G-CSF induced differentiation of NR2F6 over-expressing cells after HDAC inhibitor pretreatment (cell surface CD11b); format: cell-based, mouse; settings: pretreatment prior to G-CSF; non-treated 32Dcl3-NR2F6 cells failed to differentiate; FIG. 32
Description: It has been reported that NR2F6 exerts its regulatory effects primarily as a transcriptional repressor (Liu, X., Huang, X., and Sigmund, C. D. (2003). Identification of a nuclear orphan receptor (Ear2) as a negative regulator of renin gene transcription. Circ Res 92, 1033-1040.). The repressor activity of nuclear receptors is mediated by recruitment of corepressors with histone deacetylase (HDAC) activity; we therefore evaluated the importance of this mechanism in the effects of NR2F6 on haematopoiesis and evaluated weather the activity of NR2F6 can be modulated with an HDAC inhibitor. 32Dcl3-NR2F6 cells were incubated with the non-specific histone deacetylase inhibitor sodium butyrate prior to treatment with G-CSF.

[3] = tested on: Murine bone marrow cells; assay: shRNA knock down of NR2F6 in ex vivo bone marrow suspension culture (flow cytometry, morphology); format: cell-based, mouse
Experimental: Murine bone marrow cells were cultured in conditions that preserved stem cell maintenance (c-kit ligand; thrombopoietin; and Flt3 ligand in OP9 conditioned medium) and transduced with either an shRNA targeting NR2F6 or a scrambled control shRNA. Following seven days in culture cells were analysed by flow cytometry.

[4] = tested on: 32Dcl3 mouse hematopoietic cells; assay: shRNA knock down of NR2F6, differentiation by cytospins and flow cytometry; format: cell-based; settings: vs pSiren universal negative control, FIG. 26
Experimental: Knock down of NR2F6 using short-hairpin RNAs induces differentiation and maturation of 32Dcl3 mouse hematopoietic cells (FIG. 26).
(§1) Oligonucleotides targeting human or mouse EAR-2 were synthesized (Sigma), annealed and cloned into the pSiren vector (Clontech), after which sequence was verified (The Centre for Applied Genomics, Toronto). Virus was prepared by transient transfection of plasmid in the 293GPG cell line as described above. Knockdown was confirmed by western blot for these vectors in cell lines and by qPCR in bone marrow cells (data not shown and (17)).

[5] = tested on: bone marrow cells; assay: Methylcellulose colony formation and replating after silencing of EAR-2 (NR2F6); format: cell-based, mouse; settings: cytokines promoting multilineage or erythroid progenitor differentiation; FIG. 58
Experimental: We assessed the effects of silencing of EAR-2 expression on colony formation in vitro. […] In replating experiments we observed a significant decrease in secondary colonies in cells in which EAR-2 expression was silenced FIG. 59.
• The 293GPG retroviral packaging cell line (a gift of Richard Mulligan, Harvard University) was grown in DMEM medium supplemented with 10% FBS, tetracycline ([…]), G418 (0.3 mg/mL) and puromycin ([…]). Human EAR-2 cDNA (a kind gift from John Ladias, Harvard University) or Mus EAR-2 cDNA (a kind gift from, Curt D. Sigmund, University of Iowa) was subcloned into the pcDNA3.1V5/HIS vector (Invitrogen). […] Real time PCR was performed according to manufacturer's instructions using SYBR Green Master Mix (Applied Biosystems, Foster City, Calif.) and analyzed using the delta-delta CT method (16). Bone Marrow Transduction • Using the retroviral constructs described above, we forced expression of EAR-2 in primary murine BM cells and monitored the effects on differentiation using colony assays. […] Forty-eight hours after retroviral infection GFP-positive cells were collected by fluorescence activated cell sorting (FACS). […] GFP-positive cells were purified by fluorescence activated cell sorting (FACS) and cultured in methylcellulose medium containing hematopoietic growth factors that favored multilineage differentiation. […]

[6] = tested on: U937 human myelomonocytic leukemia cells; assay: shRNA knock down of NR2F6, differentiation by cytospins and flow cytometry; format: cell-based; settings: vs pSiren universal negative control, FIG. 27
Experimental: Knock down of NR2F6 using short-hairpin RNAs induces terminal differentiation, blood cell maturation death of U937 human leukemia cells (FIG. 27).
as §1

CC1=C(/C=C/C(C)=C/C=C/C(C)=C/C(=O)O)C(C)(C)CCC1 [atRA, all-trans retinoic acid]
number of cells in S/G2/M phases of the cell cycle [1]: drastic decrease in the number of cells in S/G2/M phases

CCCC(=O)[O-].[Na+] [sodium butyrate]
G-CSF induced differentiation (cell surface CD11b expression) [2]: showed recovery of G-CSF induced differentiation

B1: Mus shNR2F6: short-hairpin RNA targeting mouse NR2F6, SEQ ID NO: 5, cloned into the pSiren vector (nucleic acid)
DNA: GATCCGCATTACGGCGTGTTCACCTTCAAGAGAGGTGAACACGCCGTAATGCTTTTTTCTAGAG
differentiation and maturation of bone marrow cells into neutrophils ([3]; flow cytometry (FIG. 30) and morphology (FIG. 31)): promoted the differentiation and maturation of bone marrow cells into neutrophils
number of immature cells (devoid of markers of lineage commitment) ([3]; seven days in culture, vs scrambled shRNA control, flow cytometry, FIG. 28): dramatically reduced the number of immature cells
number of stem cells (ckit+Sca-1+lineage-, KSL cells) ([3]; seven days in culture, vs scrambled shRNA control, flow cytometry, FIG. 29): dramatically reduced
myeloid cell differentiation [4]: induces spontaneous myeloid cell differentiation
colony size in methylcellulose [5]: increase in the size of colonies

B2: Human shNR2F6: short-hairpin RNA targeting human NR2F6, SEQ ID NO: 6, cloned into the pSiren vector (nucleic acid)
DNA: GATCCGCATTACGGTGTCTTCACCTTCAAGAGAGGTGAAGACACCGTAATGCTTTTTTCTAGAG
myeloid cell differentiation [6]: induces spontaneous myeloid cell differentiation
